Data reported in US20180162928A1 (Janssen / Centocor, published 2018).

Key:
Experiment in all cases: ELISA, lysate on plate-bound antigen
[1] = molecular target: human serum albumin (human) (UniProt P02768)
[2] = molecular target: unrelated Fc-fused recombinant protein
[3] = molecular target: T1, recombinant biotinylated PD-L1 (rhPD-L1/Fc Chimera, R&D Systems 156-B7) (human, UniProt Q9NZQ7 19-238, biotinylated (sites not given))
T1 construct: Bought Fc chimera; also called human PD-L1
Protocol: Streptavidin-coated Maxisorp plates (Nunc catalog 436110) were blocked for 1 h in Starting Block T20 (Pierce) and then coated with biotinylated PD-L1 (using same antigen as in panning) or negative controls (an unrelated Fc-fused recombinant protein and human serum albumin) for 1 h. Plates were rinsed with TBST and diluted lysate was applied to plates for 1 h. Following additional rinses, wells were treated with HRP-conjugated anti-FN3 domain antibody (PAB25) for 1 h and then assayed with POD (Roche catalog 11582950001).

Chain of human serum albumin (human) (P02768 25-609 limits assumed): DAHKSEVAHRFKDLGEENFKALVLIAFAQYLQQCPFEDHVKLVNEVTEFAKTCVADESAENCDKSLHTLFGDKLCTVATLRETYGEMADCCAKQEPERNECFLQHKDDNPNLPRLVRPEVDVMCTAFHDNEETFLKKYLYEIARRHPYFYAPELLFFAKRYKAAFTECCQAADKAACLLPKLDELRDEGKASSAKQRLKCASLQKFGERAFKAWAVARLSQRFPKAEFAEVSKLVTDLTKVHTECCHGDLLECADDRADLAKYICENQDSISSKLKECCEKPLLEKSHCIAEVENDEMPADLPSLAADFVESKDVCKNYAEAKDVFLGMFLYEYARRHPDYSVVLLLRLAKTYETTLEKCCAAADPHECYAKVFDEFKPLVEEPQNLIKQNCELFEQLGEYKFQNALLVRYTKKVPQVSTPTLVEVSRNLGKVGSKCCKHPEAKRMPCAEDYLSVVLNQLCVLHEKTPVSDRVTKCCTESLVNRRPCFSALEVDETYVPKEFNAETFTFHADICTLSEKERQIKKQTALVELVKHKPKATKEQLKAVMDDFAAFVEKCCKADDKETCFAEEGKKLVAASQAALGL
T1 sequence (Q9NZQ7 19-238, change not shown): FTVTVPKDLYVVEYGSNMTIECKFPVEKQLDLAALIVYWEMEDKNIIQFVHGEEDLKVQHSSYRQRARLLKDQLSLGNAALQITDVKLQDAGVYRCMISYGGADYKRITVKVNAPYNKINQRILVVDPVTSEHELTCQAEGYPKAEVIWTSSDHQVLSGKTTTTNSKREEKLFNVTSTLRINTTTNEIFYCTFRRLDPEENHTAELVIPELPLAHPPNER

B1: ISOP121BR5P1H6 (designed binder, not shown: small tags and cut ends)
chain: LPAPKNLVVSRVTEDSARLSWGYIDVSYFDSFLIQYQESEKVGEAIVLTVPGSERSYDLTGLKPGTEYTVSIYGVYSRPKAEFTSNPLSAIFTT
notes: FN3 domain; E. coli lysate in the ELISA
With B1 the ELISA HSA (RSU) [1] was 1040 RSU, the ELISA Fc Control (RSU) [2] was 1440 RSU and the “ELISA PD-L1 Fc (RSU)” value [3] was 74600 RSU.

B2: ISOP121HR5P1H2 (designed binder, not shown: small tags and cut ends)
chain: LPAPKNLVVSRVTEDSARLSWTAPDAAFDSFDIYYLEYDYSGEAIVLTVPGSERSYDLTGLKPGTEYDVLIIGVKGGSLSTPLSAIFTT
notes: as for B1
For B2, the ELISA HSA (RSU) [1] was 560 RSU, the ELISA Fc Control (RSU) [2] was 720 RSU and the “ELISA PD-L1 Fc (RSU)” value [3] was 21000 RSU.

B3: ISOP121BR5P1D3 (designed binder, not shown: small tags and cut ends)
chain: LPAPKNLVVSRVTEDSARLSWYEDNTERFDSFLIQYQESEKVGEAIVLTVPGSERSYDLTGLKPGTEYTVSIYGVYIRVQVLWFSNPLSAIFTT
notes: as for B1
In the case of B3, the ELISA HSA (RSU) [1] is reported as 800 RSU, the ELISA Fc Control (RSU) [2] is reported as 800 RSU and the “ELISA PD-L1 Fc (RSU)” value [3] is reported as 75800 RSU.

B4: ISOP194BR9P1D10 (designed binder, not shown: small tags and cut ends)
chain: LPAPKNLVVSRVTEDSARLSWYEDNTERFDSFLIQYQESEKVVEAIVLTVPGSERSYDLTGLKPGTEYTVSIYGVYIRVQVLWFSNPLSAIFTT
notes: as for B1
In the case of B4, the ELISA HSA (RSU) [1] is reported as 1120 RSU, the ELISA Fc Control (RSU) [2] is reported as 720 RSU and the “ELISA PD-L1 Fc (RSU)” value [3] is reported as 1.67e+06 RSU.

B5: ISOP194AR9P1D11 (designed binder, not shown: small tags and cut ends)
chain: LPAPKNLVVSRVTEDSGRLSWQHHISFFDSFLIQYQESEKVGEAIVLTVPGSERSYDLTGLKPGTEYTVSIYGVYNRKVNFYSNPLSAIFTT
notes: as for B1
In the case of B5, the ELISA HSA (RSU) [1] is reported as 12700 RSU, the ELISA Fc Control (RSU) [2] is reported as 28200 RSU and the “ELISA PD-L1 Fc (RSU)” value [3] is reported as 1.04e+06 RSU.

B6: ISOP121BR5P1G2 (designed binder, not shown: small tags and cut ends)
chain: LPAPKNLVVSRVTEDSARLSWADELHHANHFDSFLIQYQESEKVGEAIVLTVPGSERSYDLTGLKPGTEYTVSIYGVYDRHYEIHFYSNPLSAIFTT
notes: as for B1
For B6, the ELISA HSA (RSU) [1] was 560 RSU, the ELISA Fc Control (RSU) [2] was 800 RSU and the “ELISA PD-L1 Fc (RSU)” value [3] was 16700 RSU.

B7: ISOP121FR5P1G11 (designed binder, not shown: small tags and cut ends)
chain: LPAPKNLVVSRVTEDSARLSWTAPDAAFDSFSIWYLEIVAHGEAIVLTVPGSERSYDLTGLKPGTEYEVIIHGVKGCGPSGPLSAIFTT
notes: as for B1
B7 was tested, and the ELISA HSA (RSU) [1] was 480 RSU, the ELISA Fc Control (RSU) [2] was 880 RSU and the “ELISA PD-L1 Fc (RSU)” value [3] was 18600 RSU.

B8: ISOP121BR5P1D1 (designed binder, not shown: small tags and cut ends)
chain: LPAPKNLVVSRVTEDSARLSWKWGGEFFDSFLIQYQESEKVGEAIVLTVPGSERSYDLTGLKPGTEYTVSIYGVYQRNWHHWYSNPLSAIFTT
notes: as for B1
For B8, the ELISA HSA (RSU) [1] was 960 RSU, the ELISA Fc Control (RSU) [2] was 1040 RSU and the “ELISA PD-L1 Fc (RSU)” value [3] was 186000 RSU.

B9: ISOP121BR5P1E9 (designed binder, not shown: small tags and cut ends)
chain: LPAPKNLVVSRVTEDSARLSWDSYRDYFDSFLIQYQESEKVGEAIVLTVPGSERSYDLTGLKPGTEYTVSIYGVYSRKHVVFVQSNPLSAIFTT
notes: as for B1
B9 was tested, and the ELISA HSA (RSU) [1] was 800 RSU, the ELISA Fc Control (RSU) [2] was 960 RSU and the “ELISA PD-L1 Fc (RSU)” value [3] was 42000 RSU.

B10: ISOP121BR5P1A6 (designed binder, not shown: small tags and cut ends)
chain: LPAPKNLVVSRVTEDSARLSWASWLVAFFDSFLIQYQESEKVGEAIVLTVPGSERSYDLTGLKPGTEYTVSIYGVYQRHASAFVSNPLSAIFTT
notes: as for B1
With B10 the ELISA HSA (RSU) [1] was 720 RSU, the ELISA Fc Control (RSU) [2] was 720 RSU and the “ELISA PD-L1 Fc (RSU)” value [3] was 11000 RSU.

B11: ISOP121AR5P1G10 (designed binder, not shown: small tags and cut ends)
chain: LPAPKNLVVSRVTEDSARLSWEWLEHFDSFLIQYQESEKVGEAIVLTVPGSERSYDLTGLKPGTEYTVSIYGVYQRKVEFHSNPLSAIFTTT
notes: as for B1
For B11, the ELISA HSA (RSU) [1] was 1280 RSU, the ELISA Fc Control (RSU) [2] was 1360 RSU and the “ELISA PD-L1 Fc (RSU)” value [3] was 232000 RSU.

B12: ISOP121BR5P1F7 (designed binder, not shown: small tags and cut ends)
chain: LPAPKNLVVSRVTEDSARLSWHDATWQYFDSFLIQYQESEKVGEAIVLTVPGSERSYDLTGLKPGTEYTVSIYGVFHRKHIDFVSNPLSAIFTT
notes: as for B1
For B12, the ELISA HSA (RSU) [1] was 880 RSU, the ELISA Fc Control (RSU) [2] was 720 RSU and the “ELISA PD-L1 Fc (RSU)” value [3] was 12900 RSU.

B13: ISOP121GR5P1G11 (designed binder, not shown: small tags and cut ends)
chain: LPAPKNLVVSRVTEDSARLSWTAPDAAFDSFQINYHEYGQNGEAIQLIVPGSERSYDLTGLKPGTEYGVWIWGVKGGIRSKPLWAFFTT
notes: as for B1
With B13 the ELISA HSA (RSU) [1] was 1040 RSU, the ELISA Fc Control (RSU) [2] was 960 RSU and the “ELISA PD-L1 Fc (RSU)” value [3] was 240000 RSU.

B14: ISOP121GR5P1A2 (designed binder, not shown: small tags and cut ends)
chain: LPAPKNLVVSRVTEDSARLSWTAPDAAFDSFKIQYIERYIPGEAIQLNVPGSERSYDLTGLKPGTEYSVIIPGVKGGRNSFPLWAWFTT
notes: as for B1
With B14 the ELISA HSA (RSU) [1] was 720 RSU, the ELISA Fc Control (RSU) [2] was 720 RSU and the “ELISA PD-L1 Fc (RSU)” value [3] was 61700 RSU.

B15: ISOP121AR5P1H5 (designed binder, not shown: small tags and cut ends)
chain: LPAPKNLVVSRVTEDSARLSWEDAVKHIWFDSFLIQYQESEKVGEAIVLTVPGSERSYDLTGLKPGTEYTVSIYGVWIASVWRSNPLSAIFTT
notes: as for B1
With B15 the ELISA HSA (RSU) [1] was 1120 RSU, the ELISA Fc Control (RSU) [2] was 960 RSU and the “ELISA PD-L1 Fc (RSU)” value [3] was 171000 RSU.

B16: ISOP121BR5P1E2 (designed binder, not shown: small tags and cut ends)
chain: LPAPKNLVVSRVTEDSARLSWWFPLEWFDSFLIQYQESEKVGEAIVLTVPGSERSYDLTGLKPGTEYTVSIYGVYTREHKSVWASNPLSAIFTT
notes: as for B1
With B16 the ELISA HSA (RSU) [1] was 720 RSU, the ELISA Fc Control (RSU) [2] was 800 RSU and the “ELISA PD-L1 Fc (RSU)” value [3] was 137000 RSU.

B17: ISOP121AR5P1E7 (designed binder, not shown: small tags and cut ends)
chain: LPAPKNLVVSRVTEDSARLSWHVYHEIDYFDSFLIQYQESEKVGEAIVLTVPGSERSYDLTGLKPGTEYTVSIYGVYQRKVEFYSNPLSAIFTT
notes: as for B1
B17 was tested, and the ELISA HSA (RSU) [1] was 6560 RSU, the ELISA Fc Control (RSU) [2] was 4240 RSU and the “ELISA PD-L1 Fc (RSU)” value [3] was 327000 RSU.

B18: ISOP121BR5P1C9 (designed binder, not shown: small tags and cut ends)
chain: LPAPKNLVVSRVTEDSARLSWIWPDKHEFFDSFLIQYQESEKVGEAIVLTVPGSERSYDLTGLKPGTEYTVSIYGVYDRKYANWSSNPLSAIFTT
notes: as for B1
B18 was tested, and the ELISA HSA (RSU) [1] was 1040 RSU, the ELISA Fc Control (RSU) [2] was 1120 RSU and the “ELISA PD-L1 Fc (RSU)” value [3] was 226000 RSU.

B19: ISOP121FR5P1G1 (designed binder, not shown: small tags and cut ends)
chain: LPAPKNLVVSRVTEDSARLSWTAPDAAFDSFWIHYTEAPVHGEAIVLTVPGSERSYDLTGLKPGTEYTVVIWGVKGGTWSSPLSAIFTT
notes: as for B1
B19 was tested, and the ELISA HSA (RSU) [1] was 400 RSU, the ELISA Fc Control (RSU) [2] was 640 RSU and the “ELISA PD-L1 Fc (RSU)” value [3] was 10000 RSU.

B20: ISOP121AR5P1F3 (designed binder, not shown: small tags and cut ends)
chain: LPAPKNLVVSRVTEDSARLSWPFNNYSEHFDSFLIQYQESEKVGEAIVLTVPGSERSYDLTGLKPGTEYTVSIYGVYERKTAFYSNPLSAIFTT
notes: as for B1
For B20, the ELISA HSA (RSU) [1] was 960 RSU, the ELISA Fc Control (RSU) [2] was 800 RSU and the “ELISA PD-L1 Fc (RSU)” value [3] was 180000 RSU.

B21: ISOP121GR5P1F6 (designed binder, not shown: small tags and cut ends)
chain: LPAPKNLVVSRVTEDSARLSWTAPDAAFDSFDIRYHEYTWPGEAIVLLVPGSERSYDLTGLKPGTEYGVYINGVKGGFRSKPLFAWFTTGG
notes: as for B1
With B21 the ELISA HSA (RSU) [1] was 640 RSU, the ELISA Fc Control (RSU) [2] was 640 RSU and the “ELISA PD-L1 Fc (RSU)” value [3] was 32100 RSU.

B22: ISOP194AR9P1H1 (designed binder, not shown: small tags and cut ends)
chain: LPAPKNLVVSRVTEDSARLSWWRVLGHSHFFDSFLIQYQESEKVGEAIVLTVPGSERSYDLTGLKPGTEYTVSIYGVYNRKVNFYSNPLSAIFTT
notes: as for B1
In the case of B22, the ELISA HSA (RSU) [1] is reported as 6800 RSU, the ELISA Fc Control (RSU) [2] is reported as 15700 RSU and the “ELISA PD-L1 Fc (RSU)” value [3] is reported as 2.14e+07 RSU.

B23: ISOP121AR5P1F7 (designed binder, not shown: small tags and cut ends)
chain: LPAPKNLVVSRVTEDSARLSWQEHWDTSSNFDSFLIQYQESEKVGEAIVLTVPGSERSYDLTGLKPGTEYTISIYGVYNRKVLFYSNPLSAIFTT
notes: as for B1
With B23 the ELISA HSA (RSU) [1] was 1040 RSU, the ELISA Fc Control (RSU) [2] was 720 RSU and the “ELISA PD-L1 Fc (RSU)” value [3] was 64000 RSU.
